The record followed here is patent US20140349341.

Series [1] concerns Mgat1 ZFN left monomer (CompoZr, FokI fusion) (synthetic construct). Description: cell_activity. As to conditions: Cel-I assay day 3 in CHO cells (9.6% day 10); value is for ZFN pair; spacer ccagca.
Series [2] concerns Mgat1 ZFN right monomer (CompoZr, FokI fusion) (synthetic construct). Description: cell_activity. As to conditions: Cel-I assay day 3 in CHO cells (9.6% day 10); value is for ZFN pair; spacer ccagca.

“AACAAGTTCAAGTTC (double strand) [CHO Mgat1 ZFN left half-site]”: in series [1], the activity is 8.8%.
“GCTGTGGTAGTGGAGGAC (double strand) [CHO Mgat1 ZFN right half-site]” displayed an activity in series [2] of 8.8%.
